Experimental data reported in paper doi:10.1101/2021.05.06.441046.

How the values were obtained:
[1] = biological target: 5P_FL2 spike (six-proline FL2 spike with P986 reverted to K986) (SARS-CoV-2) (UniProt P0DTC2); assay: negative-stain electron microscopy
[2] = biological target: 5P_FL2 spike (six-proline FL2 spike with P986 reverted to K986) (SARS-CoV-2) (UniProt P0DTC2); assay: SEC
[3] = biological target: 6P_DS3 spike (six-proline spike with the inter-protomer disulfide Y707C/T883C) (SARS-CoV-2) (UniProt P0DTC2); assay: negative-stain electron microscopy
[4] = biological target: 6P_DS3 spike (six-proline spike with the inter-protomer disulfide Y707C/T883C) (SARS-CoV-2) (UniProt P0DTC2); assay: SEC
[5] = biological target: 6P_DS3 spike (six-proline spike with the inter-protomer disulfide Y707C/T883C) (SARS-CoV-2) (UniProt P0DTC2); assay: non-reducing SDS-PAGE
[6] = biological target: VFLIP_D614G spike (VFLIP variant bearing the D614G mutation) (SARS-CoV-2) (UniProt P0DTC2); assay: cryo-EM structure

5P_FL2 spike (six-proline FL2 spike with P986 reverted to K986) (from UniProt P0DTC2) (domain or fragment)
stoichiometry N [1]: 3
stoichiometry N [2]: 3

6P_DS3 spike (six-proline spike with the inter-protomer disulfide Y707C/T883C) (from UniProt P0DTC2 13-1208) (domain or fragment)
stoichiometry N [3]: 3
stoichiometry N [4]: 3
stoichiometry N [5]: 3

VFLIP_D614G spike (VFLIP variant bearing the D614G mutation) (from UniProt P0DTC2) (domain or fragment)
stoichiometry N [6]: 3
